Laboratory results taken from patent US20030161832A1 (CORNELL RESEARCH FOUNDATION, published 2003).

Columns and labels:
[1] = biological target: T1, prostate specific membrane antigen (PSMA), human (human, UniProt Q04609 1-750); assay: stated, method not described
T1 construct: whole, on cells; The target was native PSMA on LNCaP cells, in LNCaP membrane preparations (ELISA) or in frozen tissue sections (immunohistochemistry); also called human PSMA

[2] = biological target: T1, prostate specific membrane antigen …; assay: ELISA on LNCaP membrane preparation
[3] = biological target: T1, prostate specific membrane antigen …; assay: ELISA on LNCaP membrane preparation, purified antibody

T1 sequence (Q04609 whole entry): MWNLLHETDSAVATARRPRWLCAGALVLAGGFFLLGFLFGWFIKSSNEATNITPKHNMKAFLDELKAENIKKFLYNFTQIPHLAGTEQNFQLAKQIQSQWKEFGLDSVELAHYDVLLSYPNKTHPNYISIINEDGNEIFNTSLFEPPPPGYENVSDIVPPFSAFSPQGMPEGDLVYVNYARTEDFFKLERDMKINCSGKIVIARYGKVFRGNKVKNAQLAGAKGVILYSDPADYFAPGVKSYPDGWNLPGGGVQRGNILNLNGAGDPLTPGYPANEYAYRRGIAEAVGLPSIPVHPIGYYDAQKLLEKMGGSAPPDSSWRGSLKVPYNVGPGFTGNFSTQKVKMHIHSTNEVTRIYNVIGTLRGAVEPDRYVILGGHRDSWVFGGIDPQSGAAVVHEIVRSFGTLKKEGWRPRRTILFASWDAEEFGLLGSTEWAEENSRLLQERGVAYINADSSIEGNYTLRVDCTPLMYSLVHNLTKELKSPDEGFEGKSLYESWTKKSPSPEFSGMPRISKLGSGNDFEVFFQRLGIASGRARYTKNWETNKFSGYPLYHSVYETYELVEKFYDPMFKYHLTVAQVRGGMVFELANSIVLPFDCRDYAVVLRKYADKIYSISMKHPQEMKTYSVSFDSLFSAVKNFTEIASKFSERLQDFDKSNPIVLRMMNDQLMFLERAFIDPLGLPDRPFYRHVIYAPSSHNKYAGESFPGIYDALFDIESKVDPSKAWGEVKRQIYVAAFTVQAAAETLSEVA

B1: murine monoclonal antibody J533 (hybridoma ATCC HB-12127) (antibody, mouse IgG1, V domains shown)
VH: EVQLQQSGPELVKPGASVKMSCKASGYTFTGYVMHWVKQKPGQVLEWIGYINPYNDVTRYNGKFKGKATLTSDKYSSTAYMELSGLTSEDSAVYYCARGENWYYFDSWGRGATLTVSS
VL: DIVLTQSPASLAVSLGQRATISCRASESIDSYDNTFMHWYQQKPGQPPNLLIFRASILESGIPARFSGSGSGTDFTLTIYPVEADDVATYYCHQSIEDPYTFGGGTKLEIK
notes: also called murine J533
binding result [1]: binds

B2: deimmunized J415 antibody composed of heavy chain version 4 (J415DIVH4) and light chain version 5 (J415DIVK5) (antibody, V domains shown)
VH: EVKLEESGGGLVQPGGSMKISCVASGFTFSNYWMNWVRQSPEKGLEWVAEIRSQSNNFATHYAESVKGRVIISRDDSKSSVYLQMNSLRAEDTAVYYCTRRWNNFWGQGTTVTVSS
VL: NIVMTQFPKSMSASAGERMTLTCKASENVGTYVSWYQQKPTQSPKMLIYGASNRFTGVPDRFSGSGSGTDFILTISSVQAEDLVDYYCGQSYTFPYTFGGGTKLEMK
notes: also called DIVH4/DIVK5; deJ415
binding result [2]: binds

B3: J415 chimeric antibody (murine variable heavy and light chain regions fused to human constant heavy and light chain regions) (antibody, V domains shown)
VH: EVKLEESGGGLVQPGGSMKLSCVASGFTFSNYWMNWVRQSPEKGLEWVAEIRSQSNNFATHYAESVKGRVIISRDDSKSSVYLQMNNLRAEDTGIYYCTRRWNNFWGQGTTLTVSS
VL: NIVMTQFPKSMSISVGERVTLTCKASENVGTYVSWYQQKPEQSPKMLIYGASNRFTGVPDRFTGSGSATDFILTISSVQTEDLVDYYCGQSYTFPYTFGGGTKLEMK
notes: also called the chimeric
binding result [2]: binds

B4: deimmunized J415 antibody composed of heavy chain version 1 (J415DIVH1) and light chain version 5 (J415DIVK5) (antibody, V domains shown)
VH: EVKLEESGGGLVQPGGSMKISCKASGFTFSNYWMNWVRQTPEKGLEWVALIRSQSNNFATHYAESVKGRVIISRDDSKSSVYLQMNSLRAEDTAVYYCTRRWNNFWGQGTTVTVSS
VL: NIVMTQFPKSMSASAGERMTLTCKASENVGTYVSWYQQKPTQSPKMLIYGASNRFTGVPDRFSGSGSGTDFILTISSVQAEDLVDYYCGQSYTFPYTFGGGTKLEMK
notes: also called DIVK5 combined with heavy chain version 1; J415DIVH1 + J415DIVK5
fold less binding than the chimeric J415 antibody [3]: 2 fold

B5: deimmunized J415 antibody composed of heavy chain version 2 (J415DIVH2) and light chain version 5 (J415DIVK5) (antibody, V domains shown)
VH: EVKLEESGGGLVQPGGSMKISCVASGFTFSNYWMNWVRQTPEKGLEWVALIRSQSNNFATHYAESVKGRVIISRDDSKSSVYLQMNSLRAEDTAVYYCTRRWNNFWGQGTTVTVSS
VL: NIVMTQFPKSMSASAGERMTLTCKASENVGTYVSWYQQKPTQSPKMLIYGASNRFTGVPDRFSGSGSGTDFILTISSVQAEDLVDYYCGQSYTFPYTFGGGTKLEMK
notes: also called DIVK5 combined with heavy chain version 2; J415DIVH2 + J415DIVK5
fold less binding than the chimeric J415 antibody [3]: 2 fold

B6: murine monoclonal antibody J415 (hybridoma ATCC HB-12109) (antibody, mouse IgG1, V domains shown)
VH: EVKLEESGGGLVQPGGSMKLSCVASGFTFSNYWMNWVRQSPEKGLEWVAEIRSQSNNFATHYAESVKGRVIISRDDSKSSVYLQMNNLRAEDTGIYYCTRRWNNFWGQGTTLTVSS
VL: NIVMTQFPKSMSISVGERVTLTCKASENVGTYVSWYQQKPEQSPKMLIYGASNRFTGVPDRFTGSGSATDFILTISSVQTEDLVDYYCGQSYTFPYTFGGGTKLEMK
notes: also called murine J415
binding result [1]: binds

B7: murine monoclonal antibody E99 (hybridoma ATCC HB-12101) (antibody, mouse IgG3, V domains shown)
VH: QVQLKESGPGLVASSQSLSITCTVSGFSLTAYGINWVRQPPGKGLEWLGVIWPDGNTDYNSTLKSRLNIFKDNSKNQVFLKMSSFQTDDTARYFCARDSYGNFKRGWFDFWGQGTTLTVSS
VL: NIVMTQSQKFMSTSPGDRVRVTCKASQNVGSDVAWYQAKPGQSPRILIYSTSYRYSGVPDRFTAYGSGTDFTLTITNVQSEDLTEYFCQQYNSYPLTFGAGTKLELK
notes: also called murine E99
binding result [1]: binds
